Assay results: patent US8258099B2, “Pin1-modulating compounds and methods of use thereof” (Max-Planck-Gesellschaft zur Foerderung der Wissenschaften …, priority 2004, dated 2012)
Square brackets hold non-standard residues; d marks the D form. Peptide text beside a SMILES is read from it. * marks the point of attachment. Biotin = O=C1N[C@H]2[C@H](CS[C@H]2CCCCC(=O)*)N1; Phe(4-tBu) = CC(C)(C)c1ccc(C[C@H](N)C(=O)O)cc1; Bip = N[C@@H](Cc1ccc(-c2ccccc2)cc1)C(=O)O; pT = C[C@@H](OP(=O)(O)O)[C@H](N)C(=O)O; 2Nal = N[C@@H](Cc1ccc2ccccc2c1)C(=O)O; Bta = N[C@@H](Cc1csc2ccccc12)C(=O)O; Tic = O=C(O)[C@@H]1Cc2ccccc2CN1; 2Thi = N[C@@H](Cc1cccs1)C(=O)O; Cha = N[C@@H](CC1CCCCC1)C(=O)O; Tle = CC(C)(C)[C@H](N)C(=O)O; NMeA = CN[C@@H](C)C(=O)O

B1: peptide 13 (peptide)
peptide: Ac-K(Biotin)AA[Phe(4-tBu)][pT][Tic][Bta]Q-NH2
SMILES: CC(=O)N[C@@H](CCCCNC(=O)CCCC[C@@H]1SC[C@@H]2NC(=O)N[C@@H]21)C(=O)N[C@@H](C)C(=O)N[C@@H](C)C(=O)N[C@@H](Cc1ccc(C(C)(C)C)cc1)C(=O)N[C@H](C(=O)N1Cc2ccccc2C[C@H]1C(=O)N[C@@H](Cc1csc2ccccc12)C(=O)N[C@@H](CCC(N)=O)C(N)=O)[C@@H](C)OP(=O)(O)O
B2: peptide 14 (peptide)
peptide: Ac-K(Biotin)AA[Cha][pT][Tic][2Nal]Q-NH2
SMILES: CC(=O)N[C@@H](CCCCNC(=O)CCCC[C@@H]1SC[C@@H]2NC(=O)N[C@@H]21)C(=O)N[C@@H](C)C(=O)N[C@@H](C)C(=O)N[C@@H](CC1CCCCC1)C(=O)N[C@H](C(=O)N1Cc2ccccc2C[C@H]1C(=O)N[C@@H](Cc1ccc2ccccc2c1)C(=O)N[C@@H](CCC(N)=O)C(N)=O)[C@@H](C)OP(=O)(O)O
B3: peptide 1 (peptide)
peptide: Ac-K(Biotin)AA[Phe(4-tBu)][pT]P[2Nal]Q-NH2
SMILES: CC(=O)N[C@@H](CCCCNC(=O)CCCC[C@@H]1SC[C@@H]2NC(=O)N[C@@H]21)C(=O)N[C@@H](C)C(=O)N[C@@H](C)C(=O)N[C@@H](Cc1ccc(C(C)(C)C)cc1)C(=O)N[C@H](C(=O)N1CCC[C@H]1C(=O)N[C@@H](Cc1ccc2ccccc2c1)C(=O)N[C@@H](CCC(N)=O)C(N)=O)[C@@H](C)OP(=O)(O)O
B4: peptide 12 (peptide)
peptide: Ac-K(Biotin)AAF[pT][NMeA][Bta]Q-NH2
SMILES: CC(=O)N[C@@H](CCCCNC(=O)CCCC[C@@H]1SC[C@@H]2NC(=O)N[C@@H]21)C(=O)N[C@@H](C)C(=O)N[C@@H](C)C(=O)N[C@@H](Cc1ccccc1)C(=O)N[C@H](C(=O)N(C)[C@@H](C)C(=O)N[C@@H](Cc1csc2ccccc12)C(=O)N[C@@H](CCC(N)=O)C(N)=O)[C@@H](C)OP(=O)(O)O
B5: peptide 10 (peptide)
peptide: Ac-K(Biotin)AA[2Thi][pT][NMeA][2Nal]Q-NH2
SMILES: CC(=O)N[C@@H](CCCCNC(=O)CCCC[C@@H]1SC[C@@H]2NC(=O)N[C@@H]21)C(=O)N[C@@H](C)C(=O)N[C@@H](C)C(=O)N[C@@H](Cc1cccs1)C(=O)N[C@H](C(=O)N(C)[C@@H](C)C(=O)N[C@@H](Cc1ccc2ccccc2c1)C(=O)N[C@@H](CCC(N)=O)C(N)=O)[C@@H](C)OP(=O)(O)O

target: full-length hPin1 (human, UniProt Q13526 1-163); experiment: cell-based or functional assay; conditions: not given
Sequence (Q13526 whole entry): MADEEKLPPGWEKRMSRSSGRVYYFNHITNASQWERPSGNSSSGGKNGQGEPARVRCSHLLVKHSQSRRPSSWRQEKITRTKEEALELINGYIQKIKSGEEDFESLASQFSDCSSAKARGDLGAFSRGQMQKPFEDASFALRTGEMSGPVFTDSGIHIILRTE

Molecule	IC50(µM), blockade of the PPIase activity of hPin1, protease free PPIase assay [µM]
B1	8
Ac-K(Biotin)AA[Bip][pT]P[2Nal]Q-NH2 [peptide 6]	18
Ac-K(Biotin)AA[Cha][pT][NMeA][2Nal]Q-NH2 [peptide 11]	7
Ac-K(Biotin)AA[2Nal][pT]P[Cha]Q-NH2 [peptide 8]	> 50
B2	25
Ac-K(Biotin)AA[Bta][pT]P[Cha]Q-NH2 [peptide 3]	> 50
Ac-K(Biotin)AA[2Nal][pT]P[Tle]Q-NH2 [peptide 7]	> 50
Ac-K(Biotin)AA[2Thi][pT]P[Bip]Q-NH2 [peptide 2]	22
Ac-K(Biotin)AA[Bip][pT]P[Bta]Q-NH2 [peptide 5]	15
Ac-K(Biotin)AA[Phe(4-tBu)][pT][NMeA][2Nal]Q-NH2 [peptide 9]	10
B3	30
B4	20
B5	15

target: T1, hPin1 (Homo sapiens, UniProt Q13526); experiment: Protease free PPIase assay, hPin1; assay type: biochemical; conditions: blockade of PPIase activity of full-length hPin1, protease free assay, 10° C.; read-out: IC50
T1 construct: The protease free assay ensures reliable measurement of IC50 values for the full-length hPin1
T1 sequence (Q13526 whole entry): as above
Method: Protein concentrations were determined using the extinction coefficient ε280=21030 M^−1 cm^−1 for hPin1, ε280=6979 M^−1 cm^−1 for the hPin1 PPIase domain, ε280=21030 M^−1 cm^−1 for XlPin1, ε280=8250 M^−1 cm^−1 for hPar14 and ε280=8250 M^−1 cm^−1 for hCyp18. Extinction coefficients were calculated using the program ProtParam Tool at ExPASy (SIB, Switzerland). All measurements were done at 10° C. in 35 mM Hepes buffer (pH 7.8).
The determination of the kinetic constants of the cis/trans isomerization within the protease-free system was performed using fluorescence based measurements (Garcia-Echeverria et al., 1993, Zhang et al., 2002) on a Hitachi F-3010 fluorescence spectrophotometer with H-Abz-Ala-Glu-Pro-Phe-NH-Np (SEQ ID NO: 2) as substrate. The substrate stock solution was 12 mM in anhydrous trifluoroethanol/0.55 M LiCl. Measurements were initiated by addition of the substrate (final concentration 10 μM) to a pre-incubated (15 min) mixture of 8.8 nM hPin1 or 7.1 nM XlPin1 and respective inhibitory peptide of desired concentrations. The excitation wavelength was 320 nm (spectral bandwidth 3 nm) and emission was detected at 420 nm (spectral bandwidth 10 nm).
Data analysis was performed by single-exponential nonlinear regression using the SigmaPlot Scientific Graphing System Version 5.00 (Jandel Corp.). The apparent first order rate constant kobs was computed by nonlinear regression of the progress curve obtained for the respective measurement. The rate constant k0 was determined in the absence of Pin1. The first order rate constants kenz was calculated from the equation kenz=kobs−k0. IC50 and Ki values were determined by fitting the first order rate constants kenz against the concentration of the inhibitory peptide by nonlinear regression according to Schutkowski et al., 1995 or a model for tight binding inhibitors (Morrison, 1969).
The protease free assay ensures reliable measurement of IC50 values for the full-length hPin1.

Molecule	IC50 [µM]
CC(=O)N[C@@H](CCCCNC(=O)CCCC[C@@H]1SC[C@@H]2NC(=O)N[C@@H]21)C(=O)N[C@@H](C)C(=O)N[C@@H](C)C(=O)N[C@@H](Cc1csc2ccccc12)C(=O)N[C@H](C(=O)N1CCC[C@H]1C(=O)N[C@@H](Cc1ccc2ccccc2c1)C(=O)N[C@@H](CCC(N)=O)C(N)=O)[C@@H](C)OP(=O)(O)O [Peptide 4] (Ac-K(Biotin)AA[Bta][pT]P[2Nal]Q-NH2)	20
CC(=O)N[C@@H](CCCCNC(=O)CCCC[C@@H]1SC[C@@H]2NC(=O)N[C@@H]21)C(=O)N[C@@H](C)C(=O)N[C@@H](C)C(=O)N[C@@H](Cc1ccc(-c2ccccc2)cc1)C(=O)N[C@H](C(=O)N1CCC[C@H]1C(=O)N[C@@H](Cc1csc2ccccc12)C(=O)N[C@@H](CCC(N)=O)C(N)=O)[C@@H](C)OP(=O)(O)O [Peptide 5] (Ac-K(Biotin)AA[Bip][pT]P[Bta]Q-NH2)	15
CC(=O)N[C@@H](CCCCNC(=O)CCCC[C@@H]1SC[C@@H]2NC(=O)N[C@@H]21)C(=O)N[C@@H](C)C(=O)N[C@@H](C)C(=O)N[C@@H](Cc1ccc2ccccc2c1)C(=O)N[C@H](C(=O)N1CCC[C@H]1C(=O)N[C@H](C(=O)N[C@@H](CCC(N)=O)C(N)=O)C(C)(C)C)[C@@H](C)OP(=O)(O)O [Peptide 7] (Ac-K(Biotin)AA[2Nal][pT]P[Tle]Q-NH2)	> 50
CC(=O)N[C@@H](CCCCNC(=O)CCCC[C@@H]1SC[C@@H]2NC(=O)N[C@@H]21)C(=O)N[C@@H](C)C(=O)N[C@@H](C)C(=O)N[C@@H](Cc1ccc2ccccc2c1)C(=O)N[C@H](C(=O)N1CCC[C@H]1C(=O)N[C@@H](CC1CCCCC1)C(=O)N[C@@H](CCC(N)=O)C(N)=O)[C@@H](C)OP(=O)(O)O [Peptide 8] (Ac-K(Biotin)AA[2Nal][pT]P[Cha]Q-NH2)	> 50
CC(=O)N[C@@H](CCCCNC(=O)CCCC[C@@H]1SC[C@@H]2NC(=O)N[C@@H]21)C(=O)N[C@@H](C)C(=O)N[C@@H](C)C(=O)N[C@@H](Cc1cccs1)C(=O)N[C@H](C(=O)N(C)[C@@H](C)C(=O)N[C@@H](Cc1ccc2ccccc2c1)C(=O)N[C@@H](CCC(N)=O)C(N)=O)[C@@H](C)OP(=O)(O)O [Peptide 10] (Ac-K(Biotin)AA[2Thi][pT][NMeA][2Nal]Q-NH2)	15
CC(=O)N[C@@H](CCCCNC(=O)CCCC[C@@H]1SC[C@@H]2NC(=O)N[C@@H]21)C(=O)N[C@@H](C)C(=O)N[C@@H](C)C(=O)N[C@@H](Cc1ccccc1)C(=O)N[C@H](C(=O)N(C)[C@@H](C)C(=O)N[C@@H](Cc1csc2ccccc12)C(=O)N[C@@H](CCC(N)=O)C(N)=O)[C@@H](C)OP(=O)(O)O [Peptide 12] (Ac-K(Biotin)AAF[pT][NMeA][Bta]Q-NH2)	20
Ac-Lys(Nε-biotinoyl)-Ala-Ala-Xaa-Thr(PO3H2)-Yaa-Zaa-Gln-NH2 with Xaa Bth, Yaa Pro, Zaa Cha [Peptide 3]	> 50

same assay, conditions: compared with peptide 15

Molecule	fold decrease of inhibition, prolyl residue at Yaa versus peptide 15 [fold]
CC(=O)N[C@@H](CCCCNC(=O)CCCC[C@@H]1SC[C@@H]2NC(=O)N[C@@H]21)C(=O)N[C@@H](C)C(=O)N[C@@H](C)C(=O)N[C@@H](Cc1csc2ccccc12)C(=O)N[C@H](C(=O)N1CCC[C@H]1C(=O)N[C@@H](Cc1ccc2ccccc2c1)C(=O)N[C@@H](CCC(N)=O)C(N)=O)[C@@H](C)OP(=O)(O)O [Peptide 4] (Ac-K(Biotin)AA[Bta][pT]P[2Nal]Q-NH2)	100
